Laboratory results from patent US20220073599A1 (Hoffmann-La Roche, published 2022).

How the values were obtained:
[1] = target: T1, human VEGFA-121 (human, UniProt P15692 181-395); experiment: SPR, Fab captured by anti-Fab antibody; 1) VEGFA-121 alone, then buffer; final signal in % of the sum of the single signals
T1 construct: sources differ (in-house, R&D, Peprotech); also called hVEGF-A121
T1 sequence: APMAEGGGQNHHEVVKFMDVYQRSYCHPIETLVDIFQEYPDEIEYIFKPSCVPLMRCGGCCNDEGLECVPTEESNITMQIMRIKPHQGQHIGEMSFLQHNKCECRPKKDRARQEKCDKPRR
Protocol: (§1) The bispecific Fab was captured by injecting a 6.5 μg/ml solution for 60 sec at a flow of 5 μl/min. Independent binding of each ligand to the bispecific Fab was analysed by determining the active binding capacity for each ligand, either added sequentially or simultaneously (flow of 10 μl/min): [0359] […] [0360] 2) Injection of human Ang2 with a concentration of 5 μg/ml for 60 sec (identifies single binding of the antigen) [0361] […] [0362] […] [0363]
(§2) Independent binding of candidate antibodies to human VEGF-A and human ANG2 was analysed by SPR as described above in the “Materials & general methods” section.

[2] = target: T2, human VEGFA-121-His (human, UniProt P15692 181-395); experiment: KinExA equilibrium titration in solution, constant VEGFA-121-His
T2 construct: Prepared in-house; not shown: His tag
T2 sequence: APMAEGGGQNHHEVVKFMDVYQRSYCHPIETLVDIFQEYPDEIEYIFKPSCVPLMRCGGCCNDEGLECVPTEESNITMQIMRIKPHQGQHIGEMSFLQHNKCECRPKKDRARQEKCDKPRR
Protocol: All KinExA® experiments were performed at room temperature (RT) using PBS pH 7.4 with 0.01% BSA and 0.01% Tween® 20 (BioRad, #161-0781) as running buffer. […] A flow rate of 0.25 ml/min was used. […] Antigen-antibody complexes were incubated at RT for at least 8 h to allow equilibrium to be reached. […] Each sample was measured in duplicates for all equilibrium experiments. The KD was obtained from non-linear regression analysis of the data using a one-site homogeneous binding model contained within the KinExA® software (Version 4.0.11) using the “standard analysis” method. The software calculates the KD and determines the 95% confidence interval by fitting the data points to a theoretical KD curve. The 95% confidence interval is given as KD low and KD high.
(§3) Binding kinetics to human VEGF-A and human ANG2 for the candidate antibodies were assessed as described above using the indicated Fab fragments (amino acid sequence as illustrated in Table 4).

[3] = target: T3, human Ang2-RBD (human, UniProt O15123 275-496, limits assumed); experiment: SPR, Fab captured by anti-Fab antibody, Ang2-RBD injected, 25 C
T3 construct: also called Human ANG2 (SPR); Angiopoietin 2-RBD
T3 sequence: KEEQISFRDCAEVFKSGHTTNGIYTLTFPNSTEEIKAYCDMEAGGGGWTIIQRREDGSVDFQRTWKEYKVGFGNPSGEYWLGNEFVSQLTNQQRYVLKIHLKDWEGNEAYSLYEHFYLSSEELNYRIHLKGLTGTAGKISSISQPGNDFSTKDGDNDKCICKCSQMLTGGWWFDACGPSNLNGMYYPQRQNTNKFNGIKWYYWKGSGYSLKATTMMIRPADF
Protocol: An anti-Fab capturing antibody (GE Healthcare 28958325) was immobilized to a Series S Sensor Chip C1 (GE Healthcare BR100535) using standard amine coupling chemistry resulting in a surface density of approximately 800 resonance units (RU). As running and dilution buffer, HBS-P+ (10 mM HEPES, 150 mM NaCl pH 7.4, 0.05% Surfactant P20) was used, the temperature of measurement was 25° C. The tested antibody was captured by injecting a 50 nM solution for 60 sec at a flow of 5 μl/min. Association was measured by injection of human Ang2-RBD in various concentrations in solution for 180 sec at a flow of 30 μl/min (0.07 nM-50 nM, 1:3 dilution). The dissociation phase was monitored for up to 900 sec and triggered by switching from the sample solution to running buffer at a flow rate of 30 μl/min. The surface was regenerated by injection of 10 mM Glycine pH 2.1 for 60 s at a flow rate of 30 μl/min. Bulk refractive index differences were corrected by subtracting blank injections and by subtracting the response obtained from the reference flow cell without captured tested antibody. Curve fitting was performed using the 1:1 Langmuir binding model within the Biacore® evaluation software.
as §3

[4] = target: T3, human Ang2-RBD; experiment: SPR, Fab captured by anti-Fab antibody; 3) VEGFA-121 first, then Ang2-RBD (binding of Ang2 in the presence of VEGFA-121); final combined signal of both antigens
Protocol: as §1, §2

[5] = target: T4, human Ang2-RBD-muFc (human, UniProt O15123 275-496, limits assumed); experiment: KinExA equilibrium titration in solution, constant Ang2-RBD-muFc
T4 construct: also called Human ANG2 (KinExA); not shown: murine Fc (muFc)
T4 sequence: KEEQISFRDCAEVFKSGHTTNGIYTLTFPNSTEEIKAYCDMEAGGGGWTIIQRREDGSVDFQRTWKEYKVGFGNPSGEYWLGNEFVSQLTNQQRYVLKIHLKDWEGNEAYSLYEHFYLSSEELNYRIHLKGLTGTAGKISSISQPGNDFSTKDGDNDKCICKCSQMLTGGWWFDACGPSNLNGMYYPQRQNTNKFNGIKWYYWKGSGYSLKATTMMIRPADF
Protocol: All KinExA® experiments were performed at room temperature (RT) using PBS pH 7.4 with 0.01% BSA and 0.01% Tween® 20 (BioRad, #161-0781) as running buffer. […] A flow rate of 0.25 ml/min was used. A constant amount of Ang2-RBD-muFc (50 pM and in a second experiment 500 pM) was titrated with tested antibody by twofold serial dilution starting at 4 nM (concentration range 1.95 pM-4000 pM). Antigen-antibody complexes were incubated at RT for at least 8 h to allow equilibrium to be reached. Equilibrated mixtures were then drawn through a column of Anti-Ang2 antibody (MAB098) coupled beads in the KinExA® system at a volume of 750 μl for 50 pM constant Ang2 and at a volume of 188 μl for 500 pM constant Ang2 permitting unbound Ang2 to be captured by the beads without perturbing the equilibrium state of the solution. Bound Ang2 was detected using a second biotinylated anti-Ang2 antibody (BAM0981) with a concentration of 250 ng/ml and following by an injection of 250 ng/ml Streptavidin Alexa Fluor™ 647 conjugate in sample buffer. Each sample was measured in duplicates for all equilibrium experiments. The KD was obtained from non-linear regression analysis of the data using a one-site homogeneous binding model contained within the KinExA® software (Version 4.0.11) using the “standard analysis” method. The software calculates the KD and determines the 95% confidence interval by fitting the data points to a theoretical KD curve. The 95% confidence interval is given as KD low and KD high.

B1: bispecific anti-VEGF-A/anti-ANG2 Fab fragment P1AA0902 (Fab, V domains shown)
VH: DDHLVESGGGLVKPGGSLRLSCATADFFEYDDMSWVRQAPGKGLEWVGSISGRGDHKYLNTKFIGRFTISRDDSKNTLYLQMNSLRAEDTAVYYCARDVGFFDWWGQGTLVTVSS
VL: AIYMHQEPSSLSASVGDRVTITCHGSYWLNSELAWYQQKPGKAPKLLIFDGDFKVFDVPSRFSGSGSHEDYTLTISSLQPEDFATYYCQQYRYHPYTFGHGTKVEIKR
notes: Bispecific Fab with two paratopes in one VH/VL pair
[1]
  Signal [%]: 50%
[2]
  Kd: 11.4 pM
[3]
  t1/2: 1.82 h
[4]
  Signal [%]: 85%
[5]
  Kd: 2.75 pM

B2: bispecific anti-VEGF-A/anti-ANG2 Fab fragment P1AA8906 (Fab, V domains shown)
VH: DFQLVESGGGLVKPGGSLRLSCAASYEFEYDDMSWVRQAPGKGLEWVGSISPKGGSTYYNTKFIGRFTISRDNSKNTLYLQMNSLRAEDTAVYYCARDVGFFDMWGQGTLVTVSS
VL: AIYMHQEPSSLSASVGDRVTITCHGSYWLSNYLAWYQQKPGKAPKLLIFDARWLVHGVPSRFSGSGSHEDYTLTISSLQPEDFATYYCQQYRYHPYTFGHGTKVEIKR
notes: Bispecific Fab with two paratopes in one VH/VL pair (DutaFab); CH1 and Ckappa
[1]
  Signal [%]: 50%
[2]
  Kd: 10.9 pM
[3]
  t1/2: 0.00667 h
[4]
  Signal [%]: 82%
[5]
  Kd: 7180 pM

B3: bispecific anti-VEGF-A/anti-ANG2 Fab fragment P1AD9820 (Fab, V domains shown)
VH: SEHLVESGGGLVKPGGSLRLSCATADFFEYDDMSWVRQAPGKGLEWVGSISPKGDHKYLNTKFIGRFTISRDDSKNTLYLQMNSLRAEDTAVYYCARDVGFFDWWGQGTLVTVSS
VL: AIYMHQEPSSLSASVGDRVTITCHGSYWLNSEVAWYQQKPGKAPKLLIFDGDFKVYEVPSRFSGSGSHEDYTLTISSLQPEDFATYYCQQYRYHPYTFGHGTKVEIKR
notes: Bispecific Fab with two paratopes in one VH/VL pair; also called P1AD9820 Fab
[1]
  Signal [%]: 50%
[2]
  Kd: 3.85 pM
[3]
  t1/2: 3.33 h
[4]
  Signal [%]: 85%
[5]
  Kd: 1.72 pM
